Assay: soluble on expression in E. coli; label from the status in PepcDB or PDB records
For “MAHHHHHHMASPASTNPAHDHFETFVQAQLCQDVLSSFQGLCRALGVESGGGLSQYHKIKAQLNYWSAKSLWAKLDKRASQPVYQQGQACTNTKCLVVGAGPCGLRAAVELALLGARVVLVEKRIKFSRHNVLHLWPFTIHDLRALGAKKFYGRFCTGTLDHISIRQLQLLLLKVALLLGVEIHWGVKFTGLQPPPRKGSGWRAQLQPNPPAQLASYEFDVLISAAGGKFVPEGFTIREMRGKLAIGITANFVNGRTVEETQVPEISGVARIYNQKFFQSLLKATGIDLENIVYYKDETHYFVMTAKKQCLLRLGVLRQDLSETDQLLGKANVVPEALQRFARAAADFATHGKLGKLEFAQDARGRPDVAAFDFTSMMRAESSARVQEKHGARLLLGLVGDCLVEPFWPLGTGVARGFLAAFDAAWMVKRWAEGAGPLEVLAERESLYQLLSQTSPENMHRNVAQYGLDPATRYPNLNLRAVTPNQVQDLYDMMDKE”, the “soluble on expression in E. coli” value was “soluble”. For “MGSSHHHHHHSSGLVPRGSVGGCLAKDGLQQSKCPDTTPKRRRASSLSRDAERRAYQWCREYLGGAWRRVQPEELRVYPVSGGLSNLLFRCSLPDHLPSVGEEPREVLLRLYGAILQGVDSLVLESVMFAILAERSLGPQLYGVFPEGRLEQYIPSRPLKTQELREPVLSAAIATKMAQFHGMEMPFTKEPHWLFGTMERYLKQIQDLPPTGLPEMNLLEMYSLKDEMGNLRKLLESTPSPVVFCHNDIQEGNILLLSEPENADSLMLVDFEYSSYNYRGFDIGNHFCEWVYDYTHEEWPFYKARPTDYPTQEQQLHFIRHYLAEAKKGETLSQEEQRKLEEDLLVEVSRYALASHFFWGLWSILQASMSTIEFGYLDYAQSRFQFYFQQKGQLTSVHSSS”, the “soluble on expression in E. coli” value was “soluble”. With “MLISKHEERVKSILSARMENGNLRSRENTQVEFKQSFNKGNIAIYAKTMAAFSNNSGGYIIFGIKDSPRSIIGLQNSNFENIQQEDLTDSINNLFSPSINELGSFILKEKEINSNGDVIIVQKIIGIYTEESNIKPVIAQKNNSSEKIVNGDIFYRYRARTEKIKYAEMEQIINCRMKQERDSLFKVFEFIRNNGATNLGIVDYNNGKLSTPYGVDVVLEKNLIAKLLKKAKFIKEGSFSENEGIPVIKVTGNINLAEEVPVPLENLDETYPYIQKQLAEKLNITPQKLYALIYFKMKESKKYHLEITTSKTNKTHKFSKFALLFLKEKIIELDENKNELEHHHHHH” the “soluble on expression in E. coli” value was “not soluble”. For “MGHHHHHHSHMWQAISRLLSEQLGEGEIELRNELPGGEVHAAWHLRYAGHDFFVKCDERELLPGFTAEADQLELLSRSKTVTVPKVWAVGADRDYSFLVMDYLPPRPLDAHSAFILGQQIARLHQWSDQPQFGLDFDNALSTTPQPNTWQRRWSTFFAEQRIGWQLELAAEKGIAFGNIDAIVEHIQQRLASHQPQPSLLHGDLWSGNCALGPDGPYIFDPACYWGDRECDLAMLPLHTEQPPQIYDGYQSVSPLPADFLERQPVYQLYTLLNRARLFGGQHLVIAQQSLDRLLAA”, the “soluble on expression in E. coli” value was “soluble”. In the case of “MQLISDRTSGAIHEIFGRDKALIGMIHCPPFPGAPRYRGETMDTIVDACLRDAERLVAGGLHGLVVENHGDIPFSKPDDIGPETAACLGVVTDRIRRAFGVPLGINVLANAPLPALAAAVAGGALFIRVNQWANAYVANEGFMEGRAAEAMRYRSLLRAEHVRIFADSHVKHGSHAIVADRSIPELTRDLAFFDADCIIATGQRTGDSATIAEIEEIGGATHLPLLVGSGVTEANVVEILKRTNGVIVASSLKEGGVWWNPVDPERVARFVAAAREGLDGLEHHHHHH”, the “soluble on expression in E. coli” value is reported as “not soluble”. For “MSTFKITIIGGGSSYTPELVDGLIQRIEQLPVTELALVDVEQGRQKVEIIAALTQRMLARHGLEQVKVSVHYSLDEAIRGARFVLTQFRVGQLPARAADERLGLKYNLLGQETTGIGGFAKALRTIPVMLDIAANVERLAPDAWIINFTNPAGIVTEAVSRYTKAKIIGLCNVPISMHHMIAKLLQAPYEDLQLRFAGLNHMVWVHEVLQRGKYVTADVLKMLCDGASLSMNNIKEAPWPPEFLQAMGAIPCPYHRYFYQTQDMLAEEMAAAAERGTRAEQVMQVEKELFALYADPHLDTKPEQLSFRGGSFYSEVALELIRAIHNNLGTQLVVNTTNRGAIRGLSDDSVVETNCIIDAKGAHPLTFGPLPVSMHGLTQQVKAYERLTIDAAVHGDRRSALLALVTNPLIANASIAQPLLEEVLQVNKPYLPQFSGL”, the “soluble on expression in E. coli” value was “not soluble”. In the case of “MAHHHHHHMEDAFAGSCVQSLFEPKADLSLCVNKSIKLFLKEVPIPPADSVDRADEQNSTDAKKEQRESALSENLSLLNGYAYFNRIKSNINLLHTELHGIKRDFLFQKKQTKKNIQKLKIVRKQNKIYQSVLQEIKKDRRRKETYELLCTEIQKLEEVNYLNKKQQMEKRDIEDLQQKMKDIENAIRINDENIQRTIQQISDIVSTNLQP”, the “soluble on expression in E. coli” value is reported as “not soluble”.
